Laboratory results taken from patent US20020082384A1, “Process for folding chemically synthesized polypeptides” (priority 2000, published 2002).

B1: synthetic, folded, hu-I-309: human chemokine I-309, chemically synthesized with 6 S-t-Bu protected cysteines and folded with cysteine (peptide, UniProt P22362 24-96, looked up)
C-C motif chemokine 1: KSMQVPFSRCCFSFAEQEIPLRAILCYRNTSSICSNEGLIFKLKRGKEACALDTVGWVQRHRKMLRHCPSKRK
B2: synthetic TARC: 71-residue human thymus and activation regulated chemokine, chemically synthesized as Cys10,11,34,50(S-t-Bu) derivative and folded with cysteine (peptide, UniProt Q92583 24-94, looked up)
C-C motif chemokine 17: ARGTNVGRECCLEYFKGAIPLRKLKTWYQTSEDCSRDAIVFVTVQGRAICSDPNNKRVKNAVKYLQSLERS
B3: recombinant TARC: recombinant thymus and activation regulated chemokine used as comparator (protein, UniProt Q92583 24-94, looked up)
C-C motif chemokine 17: B2 C-C motif chemokine 17

Columns and labels:
human lymphocytes = assay: Binding of 125I-labelled chemokine to human lymphocytes; settings: binding of 125I-labelled chemokine to human lymphocytes (FIG. 6)
Description: FIG. 6 is a graph of the comparison between the biological activity of recombinant I-309 and the synthetic, folded I-309 of the present invention. Biological activity was asses-sed by binding the chemokine, labelled with ^125I, to human lymphocytes.
Folding of the chemokine derivative purified byRP-HPLC was carried out by dissolving 65 mg of product in 60 ml of 0.6 M GuHCl, 10 mM NaHPO4 and 1 mM Tris at pH 8.0 and adding cysteine at a concentration of 100 fold molar excess with respect to the peptide. The polypeptide solution was left at 37° C. for 4 days. Complete cysteine pairing was checked by mass spectrometry after reaction with N-ethyhnaleimide (NEM). The yield of final folded chemokine was almost 25%.

neutrophils = assay: Migration across a polycarbonate filter in response to TARC (Imai method), neutrophils; format: cell-based, human
Description: (§1) The biological activity of hu-TARC obtained by the methodology of the present invention was performed according to the Imai method (T. Imai et al., J. Biol. Chem., 271, 21514, 1996).
(§2) Human T cell lines, Hut78, Hut 102, and Jurkat, as well as fresh monocytes, neutrophils and lymphocytes were assessed for their migration across a polycarbonate filter in response to TARC.

fresh monocytes = assay: Migration across a polycarbonate filter in response to TARC (Imai method), monocytes; format: cell-based, human
Description: as §1, §2

| Molecule | biological activity compared with recombinant I-309 (human lymphocytes) | chemotactic response (neutrophils) | chemotactic response (fresh monocytes) |
| --- | --- | --- | --- |
| B1 | equivalent to recombinant protein | – | – |
| B2 | – | No chemotactic response | No chemotactic response |
| B3 | – | No chemotactic response | No chemotactic response |
